From publication PMC10886158, “A New Phenolic Acid Decarboxylase from the Brown-Rot Fungus Neolentinus lepideus Natively Decarboxylates Biosourced Sinapic Acid into Canolol, a Bioactive Phenolic Compound” (Bioengineering, 2024)

What was measured:
[1] = molecular target: native phenolic acid decarboxylase from Neolentinus lepideus strain BRFM15 (NlePAD) (Neolentinus lepideus (strain BRFM15)); assay: SEC; purified native NlePAD on a Superdex 75 Prep Grade column in buffer A (20 mM sodium phosphate pH 7.5, 0.4 M saccharose, 2 mM DTT); calibrated with BSA, alpha-amylase, ovalbumin, casein and lysozyme; native mass 43-45 kDa compared with the 22 kDa band in SDS-PAGE
[2] = substrate: COc1cc(/C=C/C(=O)O)cc(OC)c1O; assay: HPLC of canolol formed, Lineweaver-Burk plot; type: biochemical, Neolentinus lepideus; details: pH 6, 50 mM sodium phosphate, 37 °C, 0.5-10 mM substrate, 30 min, apparent KM
purified protein = substrate: COc1cc(/C=C/C(=O)O)ccc1O; assay: purified protein; details: pH 6, 50 mM sodium phosphate, 45 °C, 0.5-10 mM substrate, 30 min, apparent KM

Row | Molecule | stoichiometry N [1] | Km [2] | kcat/Km [2] | Km (purified protein) | kcat/Km (purified protein)
1 | native phenolic acid decarboxylase from Neolentinus lepideus strain BRFM15 (NlePAD) (enzyme) | 2 |  |  |  | 
2 | NlePAD (Neolentinus lepideus HHB14362 ss-1) (protein, homodimer 2 x 22 kDa (SEC 43-45 kDa)) MSHEGATSEEFKQIEGKRFKYTYGLGWTYEMYFRSLTRCVYRILSGPLAGRVNFQHAHYQKIRDNVWQCSWLEETGTVVSMVVDFDQQTVKTFATFSRGHWDLPDQAKGWKRNPEDMARWRTLAQKGKDQADKHVLVEHAKMSELTSGQGDLPDIDDSWETM |  | 3.9 mM | 1600 M⁻¹ s⁻¹ | 2.6 mM | 14800 M⁻¹ s⁻¹
